The values below come from US20210095300, “INTERFERING WITH HD-ZIP TRANSCRIPTION FACTOR REPRESSION OF GENE EXPRESSION TO PRODUCE PLANTS WITH ENHANCED TRAITS” (Monsanto Technology LLC, published 2021).

Substitutions are numbered along the chain they refer to.

For data set [1], the target named is T1, ATHB17Δ113-R190K (Arabidopsis thaliana, UniProt Q8S9N6 SEQ:1-162, R190K (full-length numbering)).
T1 sequence: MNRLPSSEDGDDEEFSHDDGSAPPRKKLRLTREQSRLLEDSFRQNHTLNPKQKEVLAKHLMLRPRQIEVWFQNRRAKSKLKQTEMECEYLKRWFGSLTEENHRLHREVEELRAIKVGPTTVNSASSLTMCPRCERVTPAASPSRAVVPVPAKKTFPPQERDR
Briefly: SPR; no significant change vs parent. The note with it: chain copies: 2 (homodimer, inferred). A general note: Surface plasmon resonance follows binding to a sensor surface in real time, without labels.

Data set [2] addresses T2, ATHB17Δ113-V182A-Q185A-N186A (Arabidopsis thaliana, UniProt Q8S9N6 SEQ:1-162).
T2 chain: T1 sequence with V69A, Q72A, N73A, K77R
Briefly: SPR; loses interaction with BS1. An excerpt: (§1) HD-Zip I and II proteins bind to similar cis elements (CAAT(N)ATTG) under in vitro conditions (Sessa et al., EMBO J 12:3507-3517, 1993); Meijer et al., Mol Gen Genet 263:12-21, 2000); Frank et al., Plant J Cell Molec Biol 15:413-421, 1998); Deng et al., Plant Mol Biol 49:601-610, 2002). HD-Zip II members bind preferentially to the pseudo-palindromic sequence CAAT(C/G)ATTG (SEQ ID NO:55) (Sessa et al., EMBO J 12:3507-3517, 1993), whereas members of the HD-Zip I subfamily bind preferentially to a pseudo-palindromic sequence that differs from that of HD-Zip II at the central nucleotide (CAAT(A/T)ATTG) (SEQ ID NO:56) (Ariel et al., Trends Plant Sci 12:419-426, 2007). The DNA-binding properties of ATHB17Δ113 was tested in vitro using a surface plasmon resonance (SPR) assay for both class I and class II recognition sequences. The oligonucleotides used in this assay were […] (Class II), […] (Class I), and […] (non consensus), where the pseudo-palindromic sequences flanked by four nucleotides at the 5′ end and 3′end of the oligo are underlined.
(§2) ATHB17 amino acid substitutions and domain deletions were generated by comparing the ATHB17 protein sequence with those of mammalian HD and other plant HD-Zip transcription factors. These variants were evaluated for their DNA binding properties using SPR on Biacore 2000 as described in Example 2.

The target in data set [3] is T3, ATHB17Δ113-Δ138-195 (Arabidopsis thaliana).
T3 chain: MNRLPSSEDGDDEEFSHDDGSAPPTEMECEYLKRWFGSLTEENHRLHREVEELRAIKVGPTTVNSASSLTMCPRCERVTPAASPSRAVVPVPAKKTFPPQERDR
Briefly: SPR; homeodomain deletion; similar results stated.
Text: as §1, §2

For data set [4], the target named is T4, ATHB17Δ113 (Arabidopsis thaliana, UniProt Q8S9N6 SEQ:1-162).
T4 chain: T1 sequence with K77R
Briefly: SPR; Biacore 2000; unit from p118. Particulars: chain copies: 2 (homodimer, inferred).

In data set [5] the target is T5, ATHB17Δ113-W183F (Arabidopsis thaliana, UniProt Q8S9N6 SEQ:1-162).
T5 chain: T1 sequence with W70F, K77R
Kind of data set: SPR; asterisked in table; text says 11 uM, significantly reduced but not completely suppressed. The note with it: chain copies: 2 (homodimer, inferred).
Text: as §1, §2

In data set [6] the target is T6, ATHB17Δ113-T196A-L203A-L210A-L217A-L224A (Arabidopsis thaliana, UniProt Q8S9N6 SEQ:1-162).
T6 chain: T1 sequence with K77R, T83A, L90A, L97A, L104A, L111A
Kind of data set: SPR; leucine zipper mutant.

The target of data set [7] is T7, ATHB17Δ113-C246S (Arabidopsis thaliana, UniProt Q8S9N6 SEQ:1-162).
T7 chain: T1 sequence with K77R, C133S
Briefly: SPR. The note with it: chain copies: 2 (homodimer, inferred).
Text: as §1, §2

For data set [8], the target named is T8, ATHB17Δ113-C243S (Arabidopsis thaliana, UniProt Q8S9N6 SEQ:1-162).
T8 chain: T1 sequence with K77R, C130S
Briefly: SPR. The note with it: chain copies: 2 (homodimer, inferred).
Text: as §1, §2

Data set [9] concerns the target T9, ATHB17Δ113-F155L (Arabidopsis thaliana, UniProt Q8S9N6 SEQ:1-162).
T9 chain: T1 sequence with W70F, K77R
Kind of data set: SPR. Particulars: chain copies: 2 (homodimer, inferred).
Text: as §1, §2

Data set [10] deals with T10, ATHB17Δ113-C200A-C243S-C246S (Arabidopsis thaliana, UniProt Q8S9N6 SEQ:1-162).
T10 chain: T1 sequence with K77R, C87A, C130S, C133S
Briefly: SPR.
Text: as §1, §2

Data set [11] deals with T11, ATHB17Δ113-C243S-C246S (Arabidopsis thaliana, UniProt Q8S9N6 SEQ:1-162).
T11 chain: T1 sequence with K77R, C130S, C133S
Briefly: SPR. The note with it: chain copies: 2 (homodimer, inferred).
Text: as §1, §2

For data set [12], the target named is T4, ATHB17Δ113. Kind of data set: SPR; Biacore 2000; kon 42.3e5, koff 880.6e-4. Particulars: chain copies: 2 (homodimer, inferred).
Text: as §1, §2

Data set [13] deals with T2, ATHB17Δ113-V182A-Q185A-N186A. Kind of data set: SPR; no binding within the concentration range used.
Text: as §1, §2

The target of data set [14] is T1, ATHB17Δ113-R190K. Kind of data set: SPR; reduced affinity to BS2. Particulars: chain copies: 2 (homodimer, inferred).
Data set [15] deals with T3, ATHB17Δ113-Δ138-195. Kind of data set: SPR; homeodomain deletion.
Text: as §1, §2

The target of data set [16] is T12, ATHB17Δ113-Δ194-224 (Arabidopsis thaliana).
T12 chain: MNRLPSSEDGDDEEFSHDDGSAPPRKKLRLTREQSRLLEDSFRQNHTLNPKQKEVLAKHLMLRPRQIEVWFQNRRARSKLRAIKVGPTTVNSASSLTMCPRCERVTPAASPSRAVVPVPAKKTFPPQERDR
Kind of data set: SPR; leucine zipper deletion.
Text: as §1, §2

Data set [17] concerns the target T7, ATHB17Δ113-C246S. Briefly: SPR; random DNA. Particulars: chain copies: 2 (homodimer, inferred).
Text: as §1, §2

In data set [18] the target is T8, ATHB17Δ113-C243S. Kind of data set: SPR; random DNA. Particulars: chain copies: 2 (homodimer, inferred).
Text: as §1, §2

Data set [19] concerns the target T3, ATHB17Δ113-Δ138-195. Kind of data set: SPR; random DNA.
Text: as §1, §2

The target of data set [20] is T9, ATHB17Δ113-F155L. Kind of data set: SPR; random DNA. The note with it: chain copies: 2 (homodimer, inferred).
Text: as §1, §2

For data set [21], the target named is T10, ATHB17Δ113-C200A-C243S-C246S. Briefly: SPR; random DNA.
Text: as §1, §2

Data set [22] concerns the target T2, ATHB17Δ113-V182A-Q185A-N186A. Kind of data set: SPR; random DNA.
Text: as §1, §2

The target in data set [23] is T6, ATHB17Δ113-T196A-L203A-L210A-L217A-L224A. Kind of data set: SPR; random DNA.
Text: as §1, §2

The target of data set [24] is T12, ATHB17Δ113-Δ194-224. Briefly: SPR; random DNA.
Text: as §1, §2

The target in data set [25] is T11, ATHB17Δ113-C243S-C246S. Kind of data set: SPR; random DNA. The note with it: chain copies: 2 (homodimer, inferred).
Text: as §1, §2

The target of data set [26] is T5, ATHB17Δ113-W183F. Briefly: SPR; random DNA. Particulars: chain copies: 2 (homodimer, inferred).
Text: as §1, §2

For data set [27], the target named is T4, ATHB17Δ113. Kind of data set: SPR; random DNA did not interact with any protein tested. Particulars: chain copies: 2 (homodimer, inferred).
Text: as §1, §2

B1: Class I oligo (BS1) (dsDNA)
DNA 1: CAGACAATTATTGCGGC
DNA 2: GCCGCAATAATTGTCTG
On to B1, for which the figures for the dissociation constant (Kd) in data set [1] and in [4] were 25.7 nM and 37.7 nM, respectively. The binding result in data set [2] and in [3] was “no binding” in each case.

B2: Class II oligo (BS2) (dsDNA)
DNA 1: CAGACAATCATTGCGGC
DNA 2: GCCGCAATGATTGTCTG
Regarding B2, the Kd (in general, the equilibrium constant for the complex coming apart) in data set [5] is 11 µM; in data set [7] it was 63.6 nM; in [8], 82.2 nM; in [9], 3.63 µM; in data set [11], 41.1 nM; in [12], 20.4 nM. The dissociation constant Kd in data set [14] is 68.2 nM; in data set [16], 4.8 µM. Also, the binding result in [6], in data set [10], in [13] and in [15] was “no binding” throughout.

B3: non consensus oligo (random DNA) (dsDNA)
DNA 1: CAGCTCAGTCTGACGGC
DNA 2: GCCGTCAGACTGAGCTG
Consider B3, for which the binding result in data set [17], in data set [18], in data set [19], in data set [20], in data set [21] and in data set [22] was “no binding” in each case. Further, the binding result in data set [23], in data set [24], in data set [25], in data set [26] and in data set [27] was “no binding” in each case.
